The results in this text go back to patent US20240285785A1, “TARGETING SORTILIN” (priority 2022, published 2024).

In one series the target is T1, SORT1 (Homo sapiens, UniProt Q99523).
T1 construct: Human SORT1 (78-755)-His (Acrobiosystems); His (C); purchased Acrobiosystems SON—H52H5
T1 sequence (Q99523 78-755): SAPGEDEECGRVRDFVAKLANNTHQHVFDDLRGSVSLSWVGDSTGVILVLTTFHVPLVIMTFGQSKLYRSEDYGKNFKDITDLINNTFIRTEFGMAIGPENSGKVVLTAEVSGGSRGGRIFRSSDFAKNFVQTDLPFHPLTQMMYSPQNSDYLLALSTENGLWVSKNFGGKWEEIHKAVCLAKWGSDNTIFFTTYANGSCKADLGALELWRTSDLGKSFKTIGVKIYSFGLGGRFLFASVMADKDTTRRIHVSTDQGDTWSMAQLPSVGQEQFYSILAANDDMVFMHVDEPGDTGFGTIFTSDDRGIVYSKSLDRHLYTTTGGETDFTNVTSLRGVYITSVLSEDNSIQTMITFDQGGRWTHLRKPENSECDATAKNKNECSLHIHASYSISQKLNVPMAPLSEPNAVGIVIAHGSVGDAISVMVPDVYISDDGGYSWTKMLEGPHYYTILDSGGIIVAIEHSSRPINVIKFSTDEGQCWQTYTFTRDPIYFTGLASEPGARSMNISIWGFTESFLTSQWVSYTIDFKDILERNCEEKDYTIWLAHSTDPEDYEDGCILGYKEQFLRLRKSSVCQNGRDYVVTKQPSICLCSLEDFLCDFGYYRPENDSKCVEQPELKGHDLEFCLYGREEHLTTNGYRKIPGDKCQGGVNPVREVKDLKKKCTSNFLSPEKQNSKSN
As to the kind of experiment: Competition binding in FP. Conditions: FP competition binding assays, PDC vs parent peptide. The protocol:
Competition binding studies were conducted in a similar manner to the direct binding protocol. Unlabeled peptides were prepared with a 12-point, two-fold dilution series in a V-bottom 96-well plate for a total volume of 25 μL with a starting concentration of 50 μM. A 10× working stock of the FAM labeled peptide was prepared as described for the Direct binding experiment.
An aliquot of 20 μL of the 500 nM working solution was then added to 2.5 μL of the FAM-peptide, after which 2.5 μL of the unlabeled peptide dilution series was added and mixed by pipetting in a V-bottom 96-well plate. Samples were allowed to incubate for 15 minutes, then 10 μL of the mixture was transferred to an opaque black 384-well non-binding FP plate (Corning® Low Volume 384-well Black Flat Bottom Polystyrene NBS Microplate, #3820) in technical duplicates. The 384-well plate was then centrifuged 1 min, 4000 rpm and fluorescence and polarization of dye measured on a Biotek Synergy Neo2 plate reader using the same settings as for the Direct Binding experiment. Data were then fitted to a One site—Fit logIC50 curve in GraphPad to calculate the IC50.

A short description of series [1]: CMC formulation buffer screen (shake flask solubility). To be noted: 0.5 mg/mL. The format is physicochemical. The protocol:
Exemplary conjugate agents (e.g., sortilin binding agents), referred to in the present Example as “peptide drug conjugates” or “PDCs” were assessed in a formulation screen to determine an appropriate vehicle for in vivo studies and to assess precipitation risk. PDC solutions were made up to 0.5 mg/mL in the following buffers: 25 mM Histidine 10% sucrose pH 7, 50 mM acetate/acetic acid, 10% sucrose pH 5, 1×PBS pH 7.4, Saline, 50 mM HEPES 10% sucrose pH 7. Solubility was assessed using a shake flask method and the test compound concentration of the filtrate was confirmed using HPLC-UV.
The following buffers were screened: 25 mM Histidine 10% sucrose pH 7, 50 mM acetate/acetic acid, 10% sucrose pH 5, 1×PBS pH 7.4, Saline, 50 mM HEPES 10% sucrose pH 7. The PDCs were soluble in all buffers tested (Table 1), and we proceed to use 25 mM Histidine, 10% sucrose pH 7 as our buffer of choice for our in vivo studies.

For the compound `CC[C@H](C)[C@@H]([C@@H](CC(=O)N1CCC[C@H]1[C@H](OC)[C@@H](C)C(=O)N[C@H](C)[C@@H](O)c1ccccc1)OC)N(C)C(=O)[C@@H](NC(=O)[C@H](C(C)C)N(C)C(=O)OCc1ccc(NC(=O)[C@H](CCCNC(N)=O)NC(=O)[C@@H](NC(=O)CCCC(=O)NCCC(=O)N(C)CC(=O)N(C)CC(=O)N(C)CC(=O)N(C)CC(=O)N[C@@H](C)C(=O)N2CCC[C@H]2C(=O)N[C@@H](CCCNC(=N)N)C(=O)N[C@@H](Cc2c[nH]c3ccccc23)C(=O)N[C@@H](CC(=O)O)C(=O)N[C@@H](C)C(=O)N2CCC[C@H]2C(=O)N[C@@H](CC(C)C)C(=O)N[C@@H](CCCNC(=N)N)C(=O)N[C@@H](CC(=O)O)C(=O)N2CCC[C@H]2C(=O)N[C@@H](C)C(=O)N[C@@H](CC(C)C)C(=O)N[C@@H](CCCNC(=N)N)C(=O)N[C@@H](CCC(N)=O)C(=O)N[C@@H](CC(C)C)C(=O)N[C@@H](CC(C)C)C(=O)O)C(C)C)cc1)C(C)C` [PRGN_WT_PDC], at SORT1, the “increase in affinity relative to parent homing peptide” value is approximately 2.5 ×. Moreover, the formulation screen result in series [1] (25 mM Histidine 10% sucrose pH 7) is “clear solution”; in series [1] (50 mM HEPES 10% sucrose pH 7) it was “clear solution”; in series [1] (50 mM acetate/acetic acid, 10% sucrose pH 5), “clear solution”; in series [1] (1x PBS pH 7.4), “clear solution”; in series [1] (Saline) it was “clear solution”.
